One molecule from publication PMC4820699, “Localisation and protein-protein interactions of the Helicobacter pylori taxis sensor TlpD and their connection to metabolic functions” (Scientific Reports, 2016) can be followed below.

The assay deals with T1, purified recombinant H. pylori catalase (KatA) (H. pylori, UniProt P77872 1-505).
T1 construct: Catalase KatA of Helicobacter pylori, recombinant, active, tag-free; source: E. coli, recombinant, tag-free, purified
T1 sequence: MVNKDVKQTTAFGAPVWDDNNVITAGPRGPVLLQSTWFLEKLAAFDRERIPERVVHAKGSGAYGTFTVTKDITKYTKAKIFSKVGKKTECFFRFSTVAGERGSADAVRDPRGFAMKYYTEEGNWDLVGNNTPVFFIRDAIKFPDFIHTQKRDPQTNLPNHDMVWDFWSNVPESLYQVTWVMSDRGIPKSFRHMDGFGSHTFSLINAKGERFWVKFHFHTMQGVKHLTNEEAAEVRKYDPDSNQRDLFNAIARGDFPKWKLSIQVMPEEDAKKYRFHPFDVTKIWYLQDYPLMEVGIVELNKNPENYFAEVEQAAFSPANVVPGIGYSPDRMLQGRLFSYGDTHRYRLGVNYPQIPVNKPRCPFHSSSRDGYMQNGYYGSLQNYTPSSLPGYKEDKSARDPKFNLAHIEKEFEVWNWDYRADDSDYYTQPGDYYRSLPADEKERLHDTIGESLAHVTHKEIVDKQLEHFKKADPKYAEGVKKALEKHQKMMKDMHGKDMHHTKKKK
Description: BLI; Octet RED96; inverse setting: ligand KatA (tag-free) coupled to the sensor via free amine groups, analyte TlpD-V5 at 200, 400 and 2,000 nM in assay buffer, association 1,800 sec; two-state parallel binding model. As to conditions: both partners purified.

B1: TlpD-V5 (purified from H. pylori) (natural protein)
chain: not shown
notes: Transducer-like protein / energy taxis sensor TlpD of Helicobacter pylori; tlpD-V5 fusion gene with the potential tlpD promoter region in pHel2; also called TlpD (V5-tagged); native TlpD-V5; not shown: V5, C-terminal, kept
Turning to B1, the “KD (fast on, slow off; two-state parallel model)” value came to 275 nM and the “KD (slow on, fast off; two-state parallel model)” value came to 2000 nM.
